Biological target: T1, Neuronal calcium sensor-1 (NCS-1), Rattus norvegicus, wild type (Rattus norvegicus, UniProt P62168 1-190)
T1 construct: NCS-1, Rattus norvegicus; cDNA GenBank L27421; sub-cloned into pET-M11; 15N or 15N,13C labelled for NMR; Monomeric by SEC-MALS; also called wild type NCS-1; source: E. coli BL21 (DE3), purified (Phenyl FF hydrophobic column, TEV cleavage, Superdex 75); not shown: His tag, N-terminal, cleaved
Test: other fluorescence titration; intrinsic tryptophan fluorescence of 1 µM NCS-1 (excitation 280 nm, emission 290-410 nm), peptide added stepwise; 20 mM HEPES, 139 mM NaCl, 2 mM ATP, 5 mM EGTA, 5 mM nitrilotriacetic acid, pH 7.4, 1 µM free Ca2+; room temperature; logistic fit
Details: both partners purified

T1 sequence (P62168 whole entry): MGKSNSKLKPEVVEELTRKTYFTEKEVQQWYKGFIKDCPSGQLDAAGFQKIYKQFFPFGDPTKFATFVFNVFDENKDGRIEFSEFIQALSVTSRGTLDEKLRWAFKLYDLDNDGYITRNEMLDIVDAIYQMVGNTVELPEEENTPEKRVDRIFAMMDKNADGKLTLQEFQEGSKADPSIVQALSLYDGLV

- EC50: 14.3 µM
- stoichiometry N: 2 peptide per NCS-1
B1: D2 peptide, residues 428-443 of the human dopamine D2 receptor (peptide)
peptide: TFNIEFRKAFLKILHC
notes: dopamine D2 receptor, human, residues 428-443, cytoplasmic C-terminal tail; Dissolved first in a minimal amount of DMSO; also called D2 (428-443); dopamine D2 receptor C-terminus; source: synthetic peptide, bought: Peptide Protein Research Ltd

From PMC3218054, “Characterisation of the Interaction of the C-Terminus of the Dopamine D2 Receptor with Neuronal Calcium Sensor-1” (PLoS ONE, 2011)
